In patent US11162953B2, “Protein binding domains stabilizing functional conformational states of GPCRS and uses thereof” (priority 2010, dated 2021):
Entries after “also recorded” stand apart in the source; their conditions may differ. Counter-ions that a name gives are not always drawn. Like-named read-outs stand apart in the source and are kept apart here.

B1: NB65: β2AR-specific nanobody, SEQ ID NO:5 (protein, listed as Lama glama)
VHH: QVQLQESGGGLVQAGGSLRLSCAASGSIFSINTMGWYRQAPGKQRELVAAIHSGGSTNYADSVRGRFTISRDNAKNTVYLQMNSLKPEDTAVYYCNVKDYGAVLYEYDYWGQGTQVTVSS
B2: NB67: β2AR-specific nanobody, SEQ ID NO:20 (protein, listed as Lama glama)
VHH: QVQLQESGGGLVQAGGSLRLSCAASGTISSFIAMGWYRQSPGKQRELVAGITSGGETNYEDSVKGRFTISRDNAKNTLYLQMNTLKPEDTAVYYCNAQVFADIFNLINYWGQGTQVTVSS
B3: NB69: β2AR-specific nanobody, SEQ ID NO:26 (protein, listed as Lama glama)
VHH: QVQLQESGGGLVQPGGSLRLSCAASGSIFSINAMGWYRQAPGKQRDLVASITSGGSTNYADSVKGRFTISRDNAKNTVYLQMNSLKPEDTAVYYCNVQGTGPSSWLFNEYDYWGQGTQVTVSS
B4: NB71: β2AR-specific nanobody, SEQ ID NO:25 (protein, listed as Lama glama)
VHH: QVQLQESGGGLVQPGGSLRLSCAASGFAFSSYELRWYRQAPGKQHELVAGITTGGNTYYADSVKGRFTISRDNAKNTVYLQMSNLRPEDTAVYACNANWDLLSDYWGQGTQVTVSS
B5: NB72: β2AR-specific nanobody, SEQ ID NO:24; the tested NB72 is assumed to be this one (protein, listed as Lama glama)
VHH: QVQLQESGGGLVQPGGSLRLSCAASGFTFSGYAMNWVRQAPGKGPEWVSAINSGGGSTSYADSVKGRFTISRDNAKNTVYLQMNSLKPEDTAVYYCHARDIYSDFLGQYEYDYWGQGTQVTVSS
B6: NB84: β2AR-specific nanobody, SEQ ID NO:29; the tested NB84 is assumed to be this one (protein, listed as Lama glama)
VHH: QVQLQESGGGLVQAGGSLRLSCAASGSIFSINAMGWYRQAPGKQRELVAAITSGGSTTYADSVKGRFTVSRDNAKNTVYLQMIRLKPEDTAVYYCHVRDIYSDFLGQYEYDYWGQGTQVTVSS

Legend:
β2AR [1] = target: T1, β2AR (Homo sapiens, UniProt P07550); type: binding
β2AR [2] = test: Size exclusion chromatography of nanobody with purified agonist- or inverse agonist-bound β2AR; type: binding, human; conditions: 20 μM β2AR bound to agonist or inverse agonist, 40 μM nanobody
Experimental: The mixture was then analyzed by Size Exclusion Chromatography (SEC), which separates protein on the basis of size. Seven of the nanobodies bound to purified β2AR and migrated as a complex on SEC only in the presence of agonist and not an inverse agonist (an example is shown in FIG. 1, Panel a, FIGS. 3A, 3B, and FIG. 4).
Agonist selective nanobodies were identified by size exclusion chromatography following incubation of 20 μM agonist or inverse agonist-(carazolol-) bound β2AR-365N for one hour at RT in the absence or presence of 40 μM nanobody.

β2AR [3] = target: T1, β2AR; conditions: agonist competition binding, Sf9 membranes
Description: The IC50 values used for calculations of Ki values were obtained from means of pIC50 values determined by nonlinear regression analysis using Prism (GraphPad Software, San Diego, Calif.) and the s.e. interval from pIC50±s.e.

β2AR [4] = target: T1, β2AR; test: Monobromobimane fluorescence of purified mBBr-labeled β2AR; type: biochemical; set-up: made in house; conditions: 1 μM nanobody, β2AR bound to full agonist isoproterenol
Description: To investigate the effect of nanobodies on movement of the cytoplasmic domain of TM6 we labeled purified β2AR at C265 with monobromobimane (mBB-β2AR). […] In mBB-β2AR, the addition of agonist together with G protein results in larger fluorescent changes than either agonist or G protein alone. This is compatible with the cooperative interactions observed in agonist competition binding assays (Yao et al. 2009).
Purified β2AR was reacted with 1:1 equivalent of monobromobimane (mBBr, Invitrogen) in 100 mM NaCl, 20 mM HEPES, pH 7.5, 0.1% dodecyl maltoside and incubated overnight on ice in the dark. The fluorophore-labeled receptor was purified right before use by gel filtration on a desalting column equilibrated with the same buffer. […] All experiments were performed at 25° C. […] To determine the effect of nanobodies and ligands, three individual labeled protein samples were incubated with 1 μM nanobody or 10 μM Isoproterenol or both. Emission spectra of the samples were taken after 1 hour incubation.

[5] = ratio of IC50 with irrelevant Nb to IC50 with 500 nM Nb80, 3H-DHA radioligand

| Molecule | Potency shift (β2AR [1]; [5]) | complex formation with β2AR on SEC (β2AR [2]) | enhancement of the affinity of β2AR for the agonist isoproterenol in the presence of nanobody (β2AR [3]) | also measured |
| --- | --- | --- | --- | --- |
| CC(CCc1ccc(O)cc1)NCCc1ccc(O)c(O)c1 (centres unmarked) [dobutamine, dobutamine hydrochloride] | 2.3 | – | – | – |
| CC(Cc1ccc(O)cc1)NCC(O)c1cc(O)cc(O)c1 (centres unmarked) [fenoterol, fenoterol hydrobromide] | 3.7 | – | – | – |
| CCC(NC(C)C)C(O)c1ccc(O)c2[nH]c(=O)ccc12 (centres unmarked) [procaterol, procaterol hydrochloride] | 2.3 | – | – | – |
| CC(NCCc1ccc(O)cc1)C(O)c1ccc(O)cc1 (centres unmarked) [ritodrine, ritodrine hydrochloride] | 2.7 | – | – | – |
| metaproterenol hemisulfate salt | – | – | – | Potency shift (β2AR [1]): 2.9 |
| B1 | – | elutes at an earlier volume | two- to thirty-fold | nanobody-induced change of mBBr fluorescence (β2AR [4]; listed as 65): Comparable results; also recorded: stabilize a more active state of the β2AR |
| B2 | – | elutes at an earlier volume | two- to thirty-fold | nanobody-induced change of mBBr fluorescence (β2AR [4]; listed as 67): Comparable results; also recorded: stabilize a more active state of the β2AR |
| B3 | – | elutes at an earlier volume | two- to thirty-fold | nanobody-induced change of mBBr fluorescence (β2AR [4]; listed as 69): Comparable results; also recorded: stabilize a more active state of the β2AR |
| B4 | – | elutes at an earlier volume | two- to thirty-fold | nanobody-induced change of mBBr fluorescence (β2AR [4]; listed as 71): Comparable results; also recorded: stabilize a more active state of the β2AR |
| B5 | – | elutes at an earlier volume | two- to thirty-fold | nanobody-induced change of mBBr fluorescence (β2AR [4]; listed as 72): Comparable results; also recorded: stabilize a more active state of the β2AR |
| B6 | – | elutes at an earlier volume | two- to thirty-fold | nanobody-induced change of mBBr fluorescence (β2AR [4]; listed as 84): Comparable results; also recorded: stabilize a more active state of the β2AR |
